These results are taken from PMC8264776.

The data set has as its target T1, OsbHLH148 (bHLH148-6xHis) (Oryza sativa) (UniProt Q75KV9).
T1 sequence: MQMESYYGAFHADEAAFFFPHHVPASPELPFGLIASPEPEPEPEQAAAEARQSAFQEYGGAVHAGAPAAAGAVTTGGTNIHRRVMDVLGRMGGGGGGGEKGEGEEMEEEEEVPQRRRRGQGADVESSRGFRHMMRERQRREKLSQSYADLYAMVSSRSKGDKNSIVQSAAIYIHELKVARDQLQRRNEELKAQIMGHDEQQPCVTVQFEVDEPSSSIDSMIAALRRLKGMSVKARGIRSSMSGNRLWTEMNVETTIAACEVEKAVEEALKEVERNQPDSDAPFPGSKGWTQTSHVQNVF
The experiment in a line: EMSA. Conditions: 10 mM Tris pH 7.5, 50 mM KCl, 1 mM DTT, 2.5% glycerol, 5 mM MgCl (so in the source), 0.05% NP-40, 50 ng/ul poly(dI-dC); 20 min room temperature; 5% native PAGE. On the technique in general: In EMSA bound probe runs differently from free probe, usually more slowly.

As to “AAATAAATAAGACAGACGATTAAAATTAGATACGTAAATCATGGCGGCGTTTAAAATGGGATGGATTGAGTAGTACACTGTACCAGCGTACCCTTTTGTACTCATAGGAAGACTTCGACATTTTCAAACACTTGAGGACAACTTTCCAATTCAATAACAATACTACTCCACACGTGGCTGAAATGGCTGAAAAAGTTCCA (double strand) [OsRAP2.6 promoter fragment]”, the binding result is given as “binds”.
